Results from patent US20110098217A1 (INDIANA UNIVERSITY RESEARCH AND TECHNOLOGY, published 2011).
Where two headings read alike, the source gives them in different places. Bridge positions count the residues as written; N and C are the ends. Square brackets hold non-standard residues; d marks the D form. Primed or numbered codes have the meaning given here. Side chains are listed from the residue outwards. Ends that are not written are not given here. Glu = Glu spacer between Lys side chain and the C16 fatty acid (EC16FA); PEG 20 kDa″ = 20 kDa polyethylene glycol (PEG); PEG 20 kDa = 20 kDa polyethylene glycol; PhLac = O=C(O)[C@@H](O)Cc1ccccc1; Mpa = O=C(O)CCS

Key:
human glucagon receptor [1] = biological target: T1, human glucagon receptor (human, UniProt P47871 26-477); assay: cell-based or functional assay
human glucagon receptor [2] = biological target: T1, human glucagon receptor; assay: cell-based or functional assay; remark: listed apart in the source
human glucagon receptor [3] = biological target: T1, human glucagon receptor; assay: SPA competition vs 125I-glucagon, receptor membranes
human glucagon receptor [4] = biological target: T1, human glucagon receptor; assay: as above; remark: listed apart in the source
human glucagon receptor [5] = biological target: T1, human glucagon receptor; assay: cell-based or functional assay; remark: listed apart in the source
human GLP-1 receptor [6] = biological target: T2, human GLP-1 receptor (human, UniProt P43220 24-463); assay: cell-based or functional assay
human glucagon receptor [7] = biological target: T1, human glucagon receptor; assay: cell-based or functional assay; remark: listed apart in the source
human GLP-1 receptor [8] = biological target: T2, human GLP-1 receptor; assay: cell-based or functional assay; remark: listed apart in the source

T1 sequence (P47871 26-477): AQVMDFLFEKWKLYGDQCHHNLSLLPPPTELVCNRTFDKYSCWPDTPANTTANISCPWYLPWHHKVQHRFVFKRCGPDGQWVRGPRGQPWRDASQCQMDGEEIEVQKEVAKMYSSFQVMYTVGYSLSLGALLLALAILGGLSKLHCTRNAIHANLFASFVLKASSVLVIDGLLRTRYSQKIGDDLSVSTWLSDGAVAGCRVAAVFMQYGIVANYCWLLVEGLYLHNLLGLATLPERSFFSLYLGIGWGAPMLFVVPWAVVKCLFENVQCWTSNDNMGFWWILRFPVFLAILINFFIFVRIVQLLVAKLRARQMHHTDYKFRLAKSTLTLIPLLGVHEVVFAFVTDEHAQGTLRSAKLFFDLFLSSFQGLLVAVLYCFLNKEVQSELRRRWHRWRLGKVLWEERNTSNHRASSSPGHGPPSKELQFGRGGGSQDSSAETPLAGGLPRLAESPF

B1: Glucagon(aa6-29)-NH2 (peptide)
peptide: FTSDYSKYLDSRRAQDFVQWLMNT-NH2
notes: also called peptide no; 15
cAMP (I/A)50 inhibition index (human glucagon receptor [1]): 1730 | cAMP pA2 (human glucagon receptor [1]): 6.94 | cAMP IC50 (human glucagon receptor [2]): 346 nM | cAMP pA2 (human glucagon receptor [2]): 6.94 | IC50 (human glucagon receptor [3]): 1890 nM | IC50 (human glucagon receptor [4]): 1670 nM

B2: [Lys^9]Glucagon(aa6-29)-NH2 (peptide)
peptide: FTSKYSKYLDSRRAQDFVQWLMNT-NH2
notes: also called [K^9]Glucagon(aa6-29)-NH2; peptide no; 16
cAMP (I/A)50 inhibition index (human glucagon receptor [1]): 1990 | cAMP pA2 (human glucagon receptor [1]): 6.58 | cAMP IC50 (human glucagon receptor [2]): 398 nM | cAMP pA2 (human glucagon receptor [2]): 6.58 | IC50 (human glucagon receptor [3]): 5780 nM | IC50 (human glucagon receptor [4]): 3240 nM

B3: [PLA6, K10(EC16FA), E16K20(lactam),D28]G(6-29) (peptide)
peptide: [PhLac]TSDK([Glu-C16 fatty acid])SKYLDERRAKDFVQWLMDT-NH2
modifications: lactam 11-15
Glucagon antagonism IC50 (inhibit 0.4 nM glucagon) (human glucagon receptor [5]): 31.1 nM | GLP-1 agonism EC50 (human GLP-1 receptor [6]): 129 nM

B4: [PLA6, E16K20(Lactam),D28,GP-C40(20 kDa)]G(6-40) (peptide)
peptide: [PhLac]TSDYSKYLDERRAKDFVQWLMDTGPGPGPGPGPC(PEG 20 kDa″)-NH2
modifications: lactam 11-15
Glucagon antagonism IC50 (inhibit 0.2-0.8 nM glucagon) (human glucagon receptor [7]): 423 nM | GLP-1 agonism EC50 (human GLP-1 receptor [8]): 43.6 nM

B5: [PLA6, E16K20(Lactam), D28,CEX-C40(20 kDa)]G(6-40) (peptide)
peptide: [PhLac]TSDYSKYLDERRAKDFVQWLMDTGPSSGAPPPSC(PEG 20 kDa″)-NH2
modifications: lactam 11-15
Glucagon antagonism IC50 (inhibit 0.2-0.8 nM glucagon) (human glucagon receptor [7]): 350 to 500 nM | GLP-1 agonism EC50 (human GLP-1 receptor [8]): 75 to 100 nM

B6: [PLA6, E16K20(Lactam),D28,G29, CEX-C40(20 kDa)]G(6-40) (peptide)
peptide: [PhLac]TSDYSKYLDERRAKDFVQWLMDGGPSSGAPPPSC(PEG 20 kDa″)-NH2
modifications: lactam 11-15
Glucagon antagonism IC50 (inhibit 0.2-0.8 nM glucagon) (human glucagon receptor [7]): 335 nM | GLP-1 agonism EC50 (human GLP-1 receptor [8]): 180 nM

B7: [PLA6,E16K20(Lactam), K24(rigid-S-20 kDa)]G(6-29) (peptide)
peptide: [PhLac]TSDYSKYLDERRAKDFVK([3‑aminoprop‑1‑ynyl‑benzoic acid-Mpa-PEG 20 kDa])WLMDT-NH2
modifications: lactam 11-15
Glucagon antagonism IC50 (inhibit 0.2-0.8 nM glucagon) (human glucagon receptor [7]): 393 to 620 nM | GLP-1 agonism EC50 (human GLP-1 receptor [8]): 1360 to 2680 nM

B8: [C16FA-O-PLA6, E16K20(lactam),D28]G(6-29) (peptide)
peptide: [PhLac](C16 fatty acid)TSDYSKYLDERRAKDFVQWLMDT-NH2
modifications: lactam 11-15
Glucagon antagonism IC50 (inhibit 0.4 nM glucagon) (human glucagon receptor [5]): 338 nM | GLP-1 agonism EC50 (human GLP-1 receptor [6]): 45.7 nM

B9: [Leu^4, Glu^9]Glucagon(aa4-29)-NH2 (peptide)
peptide: LTFTSEYSKYLDSRRAQDFVQWLMNT-NH2
notes: also called peptide no
IC50 (human glucagon receptor [3]): 36.4 nM
